Data on six substances can be found in US20250051464A1.

Assay [1] has as its target Human EphA2 (ephrin receptor A2) (human) (UniProt P29317). As to the kind of experiment: IHC/IF score on frozen human tumor tissue, OVA.
Assay [2] shares this target. As to the kind of experiment: IHC/IF score on frozen human tumor tissue, UCEC-papillary.
Assay [3] shares this target. As to the kind of experiment: IHC/IF score on frozen human tumor tissue, CRC.
Assay [4] shares this target. As to the kind of experiment: IHC/IF score on frozen human tumor tissue, RCC-papillary.
For assay [5] the target is unchanged. Briefly: IHC/IF score on frozen human tumor tissue, UCEC-clear cell.
For assay [6] the target is unchanged. As to the kind of experiment: IHC/IF score on frozen human tumor tissue, Her2+ BRC.
The target is the same in assay [7]. Briefly: IHC/IF score on frozen human tumor tissue, URO.
For assay [8] the target is unchanged. As to the kind of experiment: IHC/IF score on frozen human tumor tissue, PANC.
Assay [9] has the same target. As to the kind of experiment: IHC/IF score on frozen human tumor tissue, ER+ BRC.
Assay [10] shares this target. As to the kind of experiment: IHC/IF score on frozen human tumor tissue, NSCLC-SQ.
Assay [11] shares this target. Briefly: IHC/IF score on frozen human tumor tissue, PROC.
Assay [12] has the same target. Briefly: IHC/IF score on frozen human tumor tissue, HNC.
Assay [13] shares this target. Briefly: IHC/IF score on frozen human tumor tissue, MELA.
Assay [14] has the same target. As to the kind of experiment: IHC/IF score on frozen human tumor tissue, ANC.
For assay [15] the target is unchanged. Briefly: IHC/IF score on frozen human tumor tissue, NSCLC-Adeno.
For assay [16] the target is unchanged. Briefly: IHC/IF score on frozen human tumor tissue, UCEC-endometriod.
For assay [17] the target is unchanged. Briefly: IHC/IF score on frozen human tumor tissue, STS.
The target is the same in assay [18]. As to the kind of experiment: IHC/IF score on frozen human tumor tissue, RCC-clear cell.
Assay [19] has the same target. As to the kind of experiment: IHC/IF score on frozen human tumor tissue, GAC.
Assay [20] shares this target. As to the kind of experiment: IHC/IF score on frozen human tumor tissue, TNBC.
For assay [21] the target is unchanged. Briefly: IHC/IF score on frozen human tumor tissue, ESC.

Chain of Human EphA2 (ephrin receptor A2) (human) (P29317 24-976 limits assumed): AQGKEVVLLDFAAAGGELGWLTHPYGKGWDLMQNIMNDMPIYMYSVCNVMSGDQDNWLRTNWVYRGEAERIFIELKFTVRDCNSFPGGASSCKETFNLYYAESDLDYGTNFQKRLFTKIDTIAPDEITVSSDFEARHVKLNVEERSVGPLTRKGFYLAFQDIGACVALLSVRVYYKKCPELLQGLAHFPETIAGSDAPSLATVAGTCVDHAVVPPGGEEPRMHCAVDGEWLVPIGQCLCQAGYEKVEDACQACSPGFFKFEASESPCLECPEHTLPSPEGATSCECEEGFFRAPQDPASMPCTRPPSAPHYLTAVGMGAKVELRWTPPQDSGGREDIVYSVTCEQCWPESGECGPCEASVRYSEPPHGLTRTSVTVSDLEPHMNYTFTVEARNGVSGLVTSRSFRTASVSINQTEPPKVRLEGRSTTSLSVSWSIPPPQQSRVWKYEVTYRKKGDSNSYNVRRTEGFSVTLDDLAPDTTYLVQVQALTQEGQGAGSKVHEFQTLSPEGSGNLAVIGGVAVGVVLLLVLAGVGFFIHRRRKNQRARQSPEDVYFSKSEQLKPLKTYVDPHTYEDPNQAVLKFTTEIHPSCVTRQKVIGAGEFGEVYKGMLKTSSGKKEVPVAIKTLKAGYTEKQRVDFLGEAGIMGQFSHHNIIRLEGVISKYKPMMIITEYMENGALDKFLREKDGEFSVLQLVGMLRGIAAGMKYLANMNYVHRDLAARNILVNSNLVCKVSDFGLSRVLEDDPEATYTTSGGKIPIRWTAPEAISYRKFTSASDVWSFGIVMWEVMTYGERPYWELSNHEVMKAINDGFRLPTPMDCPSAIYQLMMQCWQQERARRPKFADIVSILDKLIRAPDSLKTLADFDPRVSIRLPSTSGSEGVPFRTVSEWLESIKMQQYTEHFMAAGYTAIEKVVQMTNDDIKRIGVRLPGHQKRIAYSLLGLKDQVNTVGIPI

For the substance 6997S (around Arg907) (antibody), the IHC score in assay [1] was 1; in assay [2], 2; in [3] it was 1; in [4], 1; in [5], 2; in [6] it was 1. Further, the IHC score in assay [7], in assay [8], in assay [9], in assay [10], in [11] and in assay [12] was 1 throughout. In addition, the IHC score in assay [13] was determined as 2; in [14], 2; in [15] it was 1; in assay [16] it was 1; in assay [17], 1; in [18], 1. For the same substance, the IHC score in [19] came out at 1; in [20], 1; in assay [21] it was 2.

As for Ab73254 (extracellular) (antibody), the IHC score in [1] is 1; in [2], 1; in [3], 1; in assay [4], 1; in assay [5] it was 2; in assay [6] it was 1. The IHC score in assay [7] was found to be 1; in assay [8] it was 1; in assay [9] it was 1; in assay [10], 2; in assay [11] it was 1; in assay [12], 1. The IHC score worked out at 2 in [13]; 1 in [14]; 2 in assay [15]; 1 in [16]; 1 in assay [17]; 1 in assay [18]. Further, the IHC score in assay [19], in [20] and in assay [21] was 1 each time.

As to LS-B1794-50 (AA 450-500) (antibody), the IHC score came out at 1 in [1]; 2 in assay [2]; 1 in assay [3]; 2 in assay [4]; 2 in assay [5]; 1 in assay [6]. In addition, the IHC score in [7], in assay [8], in assay [9], in assay [10], in assay [11] and in [12] was 1 throughout. Further, the IHC score in assay [13] turned out to be 2; in assay [14] it was 1; in [15], 2; in assay [16] it was 1; in assay [17], 1; in assay [18] it was 1. Further, the IHC score in assay [19], in assay [20] and in assay [21] was 1 throughout.

For “LS-C36249-100 (extracellular) (antibody)”, the IHC score in assay [1] was 2; in assay [2] it was 3; in assay [3] it was 1; in [4], 1; in assay [5], 2; in assay [6], 2. Moreover, the IHC score in assay [7] was determined as 1; in assay [8], 1; in assay [9] it was 1; in [10] it was 2; in assay [11], 1; in assay [12], 2. For the same substance, the IHC score came out at 3 in [13]; 2 in assay [14]; 2 in assay [15]; 2 in [16]; 2 in assay [17]; 1 in [18]. Moreover, the results for the IHC score in [19], in assay [20] and in [21] were 1, 1 and 2, respectively.

For the substance LS-C100255-400 (AA 30-60) (antibody), the IHC score in assay [1] amounted to 1; in assay [2] it was 2; in assay [3] it was 1; in assay [4] it was 1; in assay [5], 2; in [6] it was 1. Moreover, the IHC score in [7], in assay [8], in [9], in [10], in assay [11] and in assay [12] was 1 throughout. Also, the IHC score was determined as 2 in assay [13]; 1 in assay [14]; 1 in assay [15]; 1 in assay [16]; 1 in assay [17]; 1 in [18]. Further, the IHC score in assay [19], in [20] and in assay [21] was 1 each time.

Consider MAB3035 (Gln25-Asn534) (antibody), for which the IHC score is 2 in assay [1]; 2 in [2]; 1 in [3]; 1 in [4]; 2 in assay [5]; 1 in assay [6]. Besides, the IHC score in assay [7] turned out to be 1; in assay [8], 2; in assay [9] it was 1; in assay [10], 2; in assay [11] it was 1; in assay [12], 2. Besides, the IHC score was 3 in assay [13]; 2 in [14]; 2 in assay [15]; 2 in assay [16]; 1 in [17]; 1 in [18]. In addition, the IHC score was 1 in [19], 1 in [20] and 2 in assay [21].
